Data on 7 molecules can be found in patent publication US20220119534A1 (DRAGONFLY THERAPEUTICS, published 2022).

The target of assay [1] is T1, Human CLEC12A expressed on cells (Ba/F3-hCLEC12A, PL21, HL60) (human, UniProt Q5QGZ9 1-265).
T1 sequence: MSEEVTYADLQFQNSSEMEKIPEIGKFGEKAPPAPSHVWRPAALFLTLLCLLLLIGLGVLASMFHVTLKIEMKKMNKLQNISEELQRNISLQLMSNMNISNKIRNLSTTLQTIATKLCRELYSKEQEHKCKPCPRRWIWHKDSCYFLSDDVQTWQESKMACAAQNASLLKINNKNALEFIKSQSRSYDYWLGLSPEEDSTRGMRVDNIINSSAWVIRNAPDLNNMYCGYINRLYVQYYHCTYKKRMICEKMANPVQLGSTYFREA
Briefly: cell-based or functional assay.

For assay [2], the target named is T2, human CLEC12A on cells (HL60, PL21, Ba/F3-hCLEC12A) (human, UniProt Q5QGZ9 1-265).
T2 construct: Endogenous on the AML lines HL60 and PL21; brought into mouse Ba/F3 cells by retroviral transduction; The cell line stands under assay; also called CLL-1
T2 sequence: T1 sequence
Briefly: flow cytometry, HL60 cells. For orientation: In flow cytometry, cells or beads pass a laser one at a time.

Assay [3] addresses T2, human CLEC12A on cells (HL60, PL21, …). Briefly: flow cytometry, PL21 cells.
Assay [4] shares this target. Briefly: flow cytometry, Ba/F3-hCLEC12A cells.
The target is the same in assay [5]. Briefly: flow cytometry, 40 nM, MFI after 2 h 37 C relative to 2 h on ice, HL60 cells.
The target is the same in assay [6]. Briefly: flow cytometry, 40 nM, MFI after 2 h 37 C relative to 2 h on ice, PL21 cells.
The target in assay [7] is T3, human CLEC12A expressed on cells (human, UniProt Q5QGZ9 1-265).
T3 construct: Transduced isogenic cells or endogenous expression on AML cells; also called RMA-hCLEC12A; Ba/F3-hCLEC12A
T3 sequence: T1 sequence
Briefly: flow cytometry, HL60.

The target of assay [8] is T4, recombinant human CLEC12A-His (human, UniProt Q5QGZ9 65-265).
T4 construct: also called hCLEC12A-His; hCLEC12A
T4 sequence: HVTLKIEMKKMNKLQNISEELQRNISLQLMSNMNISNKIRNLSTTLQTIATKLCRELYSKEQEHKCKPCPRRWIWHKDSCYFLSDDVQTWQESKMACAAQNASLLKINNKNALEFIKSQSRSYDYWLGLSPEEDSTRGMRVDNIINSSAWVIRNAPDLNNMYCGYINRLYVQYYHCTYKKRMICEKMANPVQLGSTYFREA
Briefly: SPR screening, semi-purified.

In assay [9] the target is T3, human CLEC12A expressed on cells. Briefly: flow cytometry, hCLEC12A+ Ba/F3.
For assay [10] the target is unchanged. Briefly: flow cytometry, PL21 cells.

Numbering of substitutions follows the chain as printed.

B1: AB0237 (F3'-1602 TriNKET) (bispecific antibody, human IgG1, kappa)
chain: QLQLQESGPGLVKPSETLSLTCTVSGFSLTNYGLHWIRQPPGKCLEWIGVIWSGGKTDYNPSLKSRVTISKDTSKNQFSLKLSSVQAADTAVYYCAKYDYDDSLDYWGQGTLVTVSSGGGGSGGGGSGGGGSGGGGSDIQMTQSPSSLSASVGDRVTITCHASQNINFWLSWYQQKPGKAPKLLIYEASNLHTGVPSRFSGSGSGTRFTLTISSLQPEDIATYYCQQSHSYPLTFGCGTKLEIKGSDKTHTCPPCPAPELLGGPSVFLFPPKPKDTLMISRTPEVTCVVVDVSHEDPEVKFNWYVDGVEVHNAKTKPREEQYNSTYRVVSVLTVLHQDWLNGKEYKCKVSNKALPAPIEKTISKAKGQPREPRVYTLPPCRDELTKNQVSLTCLVKGFYPSDIAVEWESNGQPENNYKTTPPVLVSDGSFTLYSKLTVDKSRWQQGNVFSCSVMHEALHNHYTQKSLSLSPG
heavy: EVQLVESGGGLVKPGGSLRLSCAASGFTFSSYSMNWVRQAPGKGLEWVSSISSSSSYIYYADSVKGRFTISRDNAKNSLYLQMNSLRAEDTAVYYCARGAPIGAAAGWFDPWGQGTLVTVSSASTKGPSVFPLAPSSKSTSGGTAALGCLVKDYFPEPVTVSWNSGALTSGVHTFPAVLQSSGLYSLSSVVTVPSSSLGTQTYICNVNHKPSNTKVDKKVEPKSCDKTHTCPPCPAPELLGGPSVFLFPPKPKDTLMISRTPEVTCVVVDVSHEDPEVKFNWYVDGVEVHNAKTKPREEQYNSTYRVVSVLTVLHQDWLNGKEYKCKVSNKALPAPIEKTISKAKGQPREPQVCTLPPSRDELTENQVSLTCLVKGFYPSDIAVEWESNGQPENNYKTTPPVLDSDGSFFLYSWLTVDKSRWQQGNVFSCSVMHEALHNHYTQKSLSLSPG
light: DIQMTQSPSSVSASVGDRVTITCRASQGISSWLAWYQQKPGKAPKLLIYAASSLQSGVPSRFSGSGSGTDFTLTISSLQPEDFATYYCQQGVSFPRTFGGGTKVEIKRTVAAPSVFIFPPSDEQLKSGTASVVCLLNNFYPREAKVQWKVDNALQSGNSQESVTEQDSKDSTYSLSSTLTLSKADYEKHKVYACEVTHQGLSSPVTKSFNRGEC
Consider B1, for which, in assay [1], the “% Max, ADCP activity of M0 macrophages against PL21 cells” value stood at 12% and the “EC50, ADCP activity of M0 macrophages against PL21 cells” value amounted to 0.08 nM.

B2: F3'-1602 TriNKET (other)
chain: B1 chain
heavy: B1 heavy
light: B1 light
notes: F3' format TriNKET; also called AB0237
Consider B2, for which the figures for the EC50 in [2], in assay [3] and in [4] were 1.01 nM, 0.52 nM and 1.54 nM, respectively. The “FOB (fold over background)” value stood at 66 fold in assay [2], 15 fold in assay [3] and 341 fold in assay [4]. Besides, the percent surface retention in assay [5] is 106%; in assay [6], 91%.

B3: AB0186 (other)
chain: DIQMTQSPSSLSASVGDRVTITCKASQDIYNYLSWFQQKPGKAPKPLIYRANILVSGVPSRFSGSGSGQDYTFTISSLQPEDIATYYCLQFDAFPFTFGCGTKLEIKGGGGSGGGGSGGGGSGGGGSEVQLVESGGGVVQPGGSLRLSCAASGFTFNAFGMHWVRQAPGKCLEWVAFISSGSTSIYYANTVKGRFTISRDNSKNTLYLQMNSLRAEDTAVYYCARDGYPTGGAMDYWGQGTSVTVSSGSDKTHTCPPCPAPELLGGPSVFLFPPKPKDTLMISRTPEVTCVVVDVSHEDPEVKFNWYVDGVEVHNAKTKPREEQYNSTYRVVSVLTVLHQDWLNGKEYKCKVSNKALPAPIEKTISKAKGQPREPRVYTLPPCRDELTKNQVSLTCLVKGFYPSDIAVEWESNGQPENNYKTTPPVLVSDGSFTLYSKLTVDKSRWQQGNVFSCSVMHEALHNHYTQKSLSLSPG
heavy: B1 heavy
light: B1 light
notes: As AB0185
B3: in assay [7], the EC50 (in general, the midpoint of the concentration-response curve) worked out at 0.5 nM and the “Max binding MFI” value stood at 412 MFI. In assay [8], the Kd – broadly, the free concentration of one partner at which half of the binding sites on the other are occupied at equilibrium, for simple one-to-one binding – was 1.04 nM; the koff (in general, a measure of how fast the partners let go of each other) worked out at 0.00117 s⁻¹; the kon (in general, the second-order rate constant of association) came to 1.12e+06 M⁻¹ s⁻¹. Moreover, in assay [9], a half-maximal effect (EC50) was put at 0.7 nM and the “Max binding MFI” value turned out to be 8160 MFI.

B4: AB0189 (other)
chain: B3 chain with Q3K, F73L
heavy: B1 heavy
light: B1 light
notes: As AB0185
As to B4, in [7], the EC50 came out at 0.7 nM and the “Max binding MFI” value came to 420 MFI. In addition, in [8], the Kd turned out to be 1.21 nM, the koff is 0.00127 s⁻¹ and the kon turned out to be 1.04e+06 M⁻¹ s⁻¹. Moreover, in [9], the EC50 amounted to 1.3 nM and the “Max binding MFI” value turned out to be 8760 MFI.

B5: Merus-CLL1 (antibody, V domains shown)
VH: EVQLVQSGAEVKKPGASVKVSCKASGYTFTSYYMHWVRQAPGQGLEWMGIINPSGGSTSYAQKFQGRVTMTRDTSTSTVYMELSSLRSEDTAVYYCARGNYGDEFDYWGQGTLVTVSS
VL: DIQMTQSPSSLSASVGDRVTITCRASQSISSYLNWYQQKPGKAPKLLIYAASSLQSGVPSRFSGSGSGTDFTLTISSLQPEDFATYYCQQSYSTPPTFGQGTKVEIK
As to B5, in assay [10], the EC50 stood at 2.02 nM and the “Max MFI” value is 201 MFI.

B6: Genentech-h6E7 (antibody, V domains shown)
VH: EVQLVQSGAEVKKPGASVKVSCKASGYSFTDYYMHWVRQAPGQGLEWIGRINPYNGAAFYSQNFKDRVTLTVDTSTSTAYLELSSLRSEDTAVYYCAIERGADLEGYAMDYWGQGTLVTVSS
VL: DIQMTQSPSSLSASVGDRVTITCRASQSVSTSSYNYMHWYQQKPGKPPKLLIKYASNLESGVPSRFSGSGSGTDFTLTISSLQPEDFATYYCQHSWEIPLTFGQGTKVEIK
Turning to B6, in assay [10], the EC50 came to 5 nM and the “Max MFI” value was 265 MFI.

B7: AB0037 mAb (Humanized 1602 anti-CLEC12A mAb) (antibody, V domains shown)
VH: QLQLQESGPGLVKPSETLSLTCTVSGFSLTNYGLHWIRQPPGKGLEWIGVIWSGGKTDYNPSLKSRVTISKDTSKNQFSLKLSSVQAADTAVYYCAKYDYDDSLDYWGQGTLVTVSS
VL: DIQMTQSPSSLSASVGDRVTITCHASQNINFWLSWYQQKPGKAPKLLIYEASNLHTGVPSRFSGSGSGTRFTLTISSLQPEDIATYYCQQSHSYPLTFGGGTKLEIK
In the case of B7, in assay [1], the “% Max, ADCP activity of M0 macrophages against PL21 cells” value came to 11% and the “EC50, ADCP activity of M0 macrophages against PL21 cells” value was 0.05 nM.
